Results from patent US20210171647A1 (WUXI BIOLOGICS SHANGHAI, published 2021).
Residue numbers refer to the chain shown, from its start.

Tests used:
Experiment in all cases: ELISA, antibody coated, OX40-ECD.His mutant supernatant; relative to silent alanine substitutions;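 note: captured OX40 mutant protein detected with HRP-labelled anti-His antibody, absorbance read-out, scaled to the mean signal of control mutants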
[1] = target: T1, human OX40-ECD.His P121A (human, UniProt P43489 29-214)
T1 construct: extracellular domain; not shown: C-terminal His-tag
T1 sequence (looked up): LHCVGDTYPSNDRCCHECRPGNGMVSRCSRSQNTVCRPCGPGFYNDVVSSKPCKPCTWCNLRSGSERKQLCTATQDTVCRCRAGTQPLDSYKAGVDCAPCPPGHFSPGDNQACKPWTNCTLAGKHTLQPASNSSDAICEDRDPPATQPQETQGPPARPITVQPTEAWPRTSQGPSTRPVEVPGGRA

[2] = target: T2, human OX40-ECD.His M52A (human, UniProt P43489 29-214)
T2 construct: extracellular domain; not shown: C-terminal His-tag
T2 sequence (looked up): T1 sequence (looked up) with M24A, A93P

[3] = target: T3, human OX40-ECD.His A173G (human, UniProt P43489 29-214)
T3 construct: extracellular domain; not shown: C-terminal His-tag
T3 sequence (looked up): T1 sequence (looked up) with A93P, A145G

[4] = target: T4, human OX40-ECD.His D40A (human, UniProt P43489 29-214)
T4 construct: extracellular domain; not shown: C-terminal His-tag
T4 sequence (looked up): T1 sequence (looked up) with D12A, A93P

[5] = target: T5, human OX40-ECD.His V123A (human, UniProt P43489 29-214)
T5 construct: extracellular domain; not shown: C-terminal His-tag
T5 sequence (looked up): T1 sequence (looked up) with A93P, V95A

[6] = target: T6, human OX40-ECD.His S59A (human, UniProt P43489 29-214)
T6 construct: extracellular domain; not shown: C-terminal His-tag
T6 sequence (looked up): T1 sequence (looked up) with S31A, A93P

[7] = target: T7, human OX40-ECD.His S78A (human, UniProt P43489 29-214)
T7 construct: extracellular domain; not shown: C-terminal His-tag
T7 sequence (looked up): T1 sequence (looked up) with S50A, A93P

[8] = target: T8, human OX40-ECD.His V53A (human, UniProt P43489 29-214)
T8 construct: extracellular domain; not shown: C-terminal His-tag
T8 sequence (looked up): T1 sequence (looked up) with V25A, A93P

[9] = target: T9, human OX40-ECD.His T62A (human, UniProt P43489 29-214)
T9 construct: extracellular domain; not shown: C-terminal His-tag
T9 sequence (looked up): T1 sequence (looked up) with T34A, A93P

[10] = target: T10, human OX40-ECD.His T102A (human, UniProt P43489 29-214)
T10 construct: extracellular domain; not shown: C-terminal His-tag
T10 sequence (looked up): T1 sequence (looked up) with T74A, A93P

Fold Change [1]: 0.974 | Fold Change [2]: 0.977 | Fold Change [3]: 0.993 | Fold Change [4]: 0.994 | Fold Change [5]: 1 | Fold Change [6]: 1 | Fold Change [7]: 1 | Fold Change [8]: 0.896 | Fold Change [9]: 0.923 | Fold Change [10]: 0.94
B1: 1.134.9-u1-IgG1L (antibody, V domains shown)
VH: QVQLQESGPGLVKPSGTLSLTCAVSGGSISSYNWWSWVRQPPGKGLEWIGEIYHGGNTNYNPSLKSRVTMSVDNSKNQFSLKLSSVTAADTAVYYCARAPGDWGGSPYFDFWGQGTLVTVSS
VL: SSELTQDPAVSVALGQTVRITCQGDNLRTYYASWYQQKPGQAPILLIYGRNKRPSGIPDRFSGSSSGNTASLTITGAQAEDEAAYYCNSRDSSGNPVVFGGGTKLTVL
notes: fully human IgG1, lambda
